Measurements published in the supplement of paper PMC10724198.
± gives the standard deviation of the averaged measurements.
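Note: PSI is a weighted mean of sequencing reads over stability bins, variants kept only with over 10 reads, mCherry proximal and sfGFP distal, peptide attached via GGGS linker.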

Each sequence was assayed on Saccharomyces cerevisiae (assay: protein stability index of tFT-peptide fusion (C-terminal peptide) (PSI (0-1 scale)); higher = more stable (slower turnover)). Details: genetic background: wild type; temperature: 30 C.
PRCPSTPQPEHH gave a protein stability index of 0.739 ± 0.027.
With PRELFGFNLAQP the protein stability index was 0.692 ± 0.011.
PRGLGPPGWGRR was tested, and the protein stability index was 0.697 ± 0.022.
PRGLLLPLPCHS gave a protein stability index of 0.574 ± 0.00058.
With PRLDPTSPPPHA the protein stability index was 0.675 ± 0.0094.
Work on PRLFLFRSSFPP yielded a protein stability index of 0.681 ± 0.048.
Work on PRLIESYRPITS yielded a protein stability index of 0.715 ± 0.09.
PRLPPPHRRPAP gave a protein stability index of 0.759 ± 0.022.
PRLRRVCGQSLV gave a protein stability index of 0.6664 ± 0.0066.
Work on PRLSLPSAPPRP yielded a protein stability index of 0.732 ± 0.08.
Work on PRPGQPFSRFRF yielded a protein stability index of 0.6724 ± 0.0054.
With PRPGSRCPIKGR the protein stability index was 0.692 ± 0.024.
With PRPLFVHTSSTF the protein stability index was 0.7105 ± 0.0024.
PRPLLLLPPATP was tested, and the protein stability index was 0.703 ± 0.029.
PRPLLVPPLFKS was tested, and the protein stability index was 0.768 ± 0.031.
With PRPLPVCTDVHD the protein stability index was 0.642 ± 0.019.
With PRPPLPPASPPL the protein stability index was 0.595 ± 0.044.
PRPPLPSLHLSP gave a protein stability index of 0.679 ± 0.024.
In the case of PRPPPATRPGPP, the protein stability index is reported as 0.688 ± 0.017.
With PRPPPSFPPDPS the protein stability index was 0.669 ± 0.049.
In the case of PRPPSSSPHPHP, the protein stability index is reported as 0.727 ± 0.095.
PRPTPPHPPITR gave a protein stability index of 0.824 ± 0.027.
PRPTPPHSPLLP showed a protein stability index of 0.586 ± 0.02.
PRPVRAVEMLTL gave a protein stability index of 0.715 ± 0.029.
With PRSLLSPPGSVD the protein stability index was 0.704 ± 0.026.
Work on PRSPTPPPSYSP yielded a protein stability index of 0.715 ± 0.11.
PRVCSCFLPTRP gave a protein stability index of 0.711 ± 0.01.
PRVCSLLPSGSF gave a protein stability index of 0.711 ± 0.014.
Work on PRYRTPPLPPPG yielded a protein stability index of 0.55 ± 0.012.
PSADRQSMRCRR was tested, and the protein stability index was 0.631 ± 0.007.
For PSALPLVPSPLP, the protein stability index was 0.706 ± 0.033.
For PSAPFLPSPPPV, the protein stability index was 0.661 ± 0.021.
Work on PSAWRCFSTGKV yielded a protein stability index of 0.844 ± 0.018.
With PSDLPPPTPLLA the protein stability index was 0.63 ± 0.022.
PSDSRSTPPTPD showed a protein stability index of 0.698 ± 0.033.
With PSFFFFAAPLPL the protein stability index was 0.623 ± 0.028.
In the case of PSFLPLWFSRLR, the protein stability index is reported as 0.731 ± 0.093.
In the case of PSFVIQRCPMIL, the protein stability index is reported as 0.606 ± 0.076.
Sequence PSFVRTVPSPCP has a protein stability index of 0.658 ± 0.011.
Sequence PSGCIPCNVGVS has a protein stability index of 0.705 ± 0.099.
With PSGSFPPCLGSP the protein stability index was 0.653 ± 0.018.
PSGVKILFELKP was tested, and the protein stability index was 0.645 ± 0.03.
With PSHPSPPPPAPP the protein stability index was 0.692 ± 0.041.
In the case of PSHRPWPPTRPP, the protein stability index is reported as 0.677 ± 0.033.
With PSIKRSVKPFSP the protein stability index was 0.857 ± 0.2.
Sequence PSIPSNPPTPPR has a protein stability index of 0.72 ± 0.033.
In the case of PSLARWLTLGYM, the protein stability index is reported as 0.63 ± 0.013.
Sequence PSLNPRVSFVNL has a protein stability index of 0.685 ± 0.0073.
Work on PSLSPSLLRFNL yielded a protein stability index of 0.66 ± 0.015.
PSLSPSPRITSS gave a protein stability index of 0.65 ± 0.077.
PSMLFPRTLSPL gave a protein stability index of 0.6963 ± 0.0056.
In the case of PSPALPANQSFY, the protein stability index is reported as 0.665 ± 0.019.
PSPLLPPPLPPS gave a protein stability index of 0.678 ± 0.046.
Work on PSPLPPPPLPLS yielded a protein stability index of 0.5739 ± 0.0048.
In the case of PSPLPPVPPPPP, the protein stability index is reported as 0.639 ± 0.095.
Work on PSPPAPPPSPLP yielded a protein stability index of 0.823 ± 0.15.
In the case of PSPPPAPAPLLA, the protein stability index is reported as 0.667 ± 0.032.
PSPPPPPPPGSF showed a protein stability index of 0.677 ± 0.06.
With PSPPPPPSPSPP the protein stability index was 0.626 ± 0.014.
PSPPPSQSLPPP was tested, and the protein stability index was 0.717 ± 0.043.
PSPPPVSPVVPP showed a protein stability index of 0.672 ± 0.036.
PSPPTSLPPTDA showed a protein stability index of 0.706 ± 0.029.
PSPPTYPSFPSR was tested, and the protein stability index was 0.724 ± 0.041.
For PSPSLYPPASPP, the protein stability index was 0.654 ± 0.046.
PSPSVVPASSPP gave a protein stability index of 0.669 ± 0.03.
PSPVPPSPPPSP showed a protein stability index of 0.512 ± 0.083.
With PSPVPSLPPFLP the protein stability index was 0.745 ± 0.13.
In the case of PSRLPSPPPPPP, the protein stability index is reported as 0.721 ± 0.073.
Sequence PSRLSKTLLMGW has a protein stability index of 0.676 ± 0.07.
PSRPPPTPPLPP gave a protein stability index of 0.629 ± 0.14.
In the case of PSRSFLPTHCSL, the protein stability index is reported as 0.666 ± 0.017.
Sequence PSRYHLFLPSPA has a protein stability index of 0.73 ± 0.055.
PSSFIRFLLCCF showed a protein stability index of 0.644 ± 0.04.
PSSPPPPPLSPL gave a protein stability index of 0.664 ± 0.017.
With PSSPPTPLPPRS the protein stability index was 0.663 ± 0.077.
PSSTSPPPPPPP was tested, and the protein stability index was 0.695 ± 0.025.
Work on PSSWPPPPPPLP yielded a protein stability index of 0.614 ± 0.022.
With PSSYFFPPHFLL the protein stability index was 0.665 ± 0.1.
With PSTLKQVMNLGA the protein stability index was 0.666 ± 0.18.
In the case of PSTPPPPPGDFL, the protein stability index is reported as 0.709 ± 0.037.
PSTSHLALSWSV gave a protein stability index of 0.703 ± 0.065.
PSVAPFPLAPFS gave a protein stability index of 0.71 ± 0.066.
For PSVLGCIVPLIW, the protein stability index was 0.7197 ± 0.0043.
Sequence PSVLLAPTRRHP has a protein stability index of 0.678 ± 0.0016.
Sequence PSVPLAGFVCRA has a protein stability index of 0.587 ± 0.11.
Work on PSVPPRVCSFSI yielded a protein stability index of 0.735 ± 0.08.
PSWEPLPLPAVL gave a protein stability index of 0.707 ± 0.018.
In the case of PSYKRGGSYPMQ, the protein stability index is reported as 0.692 ± 0.049.
In the case of PSYLALPLSTSP, the protein stability index is reported as 0.684 ± 0.024.
With PTAPPRLRLSFC the protein stability index was 0.667 ± 0.0089.
In the case of PTASDPLPPPPN, the protein stability index is reported as 0.867 ± 0.13.
PTATMLFLTRTG gave a protein stability index of 0.702 ± 0.043.
For PTHCTPRRRTRR, the protein stability index was 0.676 ± 0.014.
For PTHSRQPPYLSL, the protein stability index was 0.684 ± 0.027.
For PTIGTLPTVGDD, the protein stability index was 0.656 ± 0.02.
PTIPLLPPPLPP was tested, and the protein stability index was 0.622 ± 0.022.
PTKRHRKAPGTN was tested, and the protein stability index was 0.629 ± 0.069.
Sequence PTLTTQPNVPLN has a protein stability index of 0.723 ± 0.038.
Work on PTPPRRPLSFSP yielded a protein stability index of 0.653 ± 0.057.
For PTQSDSTSTSRI, the protein stability index was 0.69 ± 0.016.
In the case of PTRPPAPGPGRH, the protein stability index is reported as 0.744 ± 0.045.
With PTRPPSLPRIPP the protein stability index was 0.669 ± 0.028.
In the case of PTRQTIWPPPAS, the protein stability index is reported as 0.748 ± 0.026.
With PTSACAPACPLL the protein stability index was 0.706 ± 0.032.
Sequence PTSLPLPPPSLS has a protein stability index of 0.7333 ± 0.0056.
Sequence PTSPPPPPPPPP has a protein stability index of 0.657 ± 0.084.
Sequence PVAQSCHAPSPP has a protein stability index of 0.62303 ± 0.00018.
In the case of PVFGRPFCSSSV, the protein stability index is reported as 0.682 ± 0.061.
PVFLQRVIPRSR showed a protein stability index of 0.678 ± 0.096.
PVHHLSLPSPLL showed a protein stability index of 0.732 ± 0.037.
For PVLPPPAPSPPP, the protein stability index was 0.678 ± 0.042.
PVLVLPHARSPF gave a protein stability index of 0.695 ± 0.021.
For PVPASSSRSLLL, the protein stability index was 0.671 ± 0.0095.
Sequence PVPPQHPPLKSI has a protein stability index of 0.705 ± 0.059.
For PVPRRPLLPLPP, the protein stability index was 0.663 ± 0.02.
With PVPSPLLPSFSL the protein stability index was 0.715 ± 0.064.
For PVSPALTPFPPS, the protein stability index was 0.705 ± 0.043.
PVSSPSSPLPPL gave a protein stability index of 0.678 ± 0.054.
PVVKVCRPVFLD gave a protein stability index of 0.829 ± 0.13.
PWFIGGSLGESG was tested, and the protein stability index was 0.699 ± 0.027.
Work on PWQSSPFTPALT yielded a protein stability index of 0.649 ± 0.057.
Work on PWTRMHRETRYL yielded a protein stability index of 0.683 ± 0.02.
In the case of PWVSGGMGKGDV, the protein stability index is reported as 0.686 ± 0.0075.
PYAFPPPPPPPP was tested, and the protein stability index was 0.64 ± 0.032.
With PYFLLLVSIPPS the protein stability index was 0.525 ± 0.0056.
Work on PYHTITPKPLQR yielded a protein stability index of 0.677 ± 0.049.
In the case of PYLLGPIPGIPR, the protein stability index is reported as 0.666 ± 0.059.
With PYPPPPRLLVSP the protein stability index was 0.7359 ± 0.0056.
PYQPSPFRLAAG gave a protein stability index of 0.67 ± 0.1.
Work on PYRPPPPLALSL yielded a protein stability index of 0.693 ± 0.015.
For PYRWQTRPDAVD, the protein stability index was 0.666 ± 0.014.
For PYSCPPGCRSVL, the protein stability index was 0.6894 ± 0.0043.
In the case of PYSGSPRALPRP, the protein stability index is reported as 0.716 ± 0.069.
PYTHFFSPPFWP showed a protein stability index of 0.766 ± 0.04.
PYTPLLLSTLAP gave a protein stability index of 0.6899 ± 0.0016.
Sequence PYWYPRASRGAL has a protein stability index of 0.699 ± 0.043.
For QAKNNKKQKGWQ, the protein stability index was 0.646 ± 0.046.
Work on QARKGPISSCRP yielded a protein stability index of 0.664 ± 0.067.
With QARSLVRSLCYP the protein stability index was 0.677 ± 0.0082.
QAVVGSYRELGE was tested, and the protein stability index was 0.709 ± 0.038.
In the case of QCIYVCKKTPTI, the protein stability index is reported as 0.679 ± 0.067.
QCNTFNKEKPER showed a protein stability index of 0.694 ± 0.021.
Sequence QCQVKGIFKKVF has a protein stability index of 0.687 ± 0.0076.
QDDTASMVVMIR showed a protein stability index of 0.697 ± 0.034.
Sequence QDLDTALLLHAF has a protein stability index of 0.657 ± 0.018.
QDSDRSLTPKPL showed a protein stability index of 0.688 ± 0.028.
QEALLAPEYSVD gave a protein stability index of 0.7 ± 0.0096.
QEMMRGVVGGNW gave a protein stability index of 0.715 ± 0.033.
With QEVKLAPEHRLR the protein stability index was 0.675 ± 0.013.
QFCYSNPVSRYG showed a protein stability index of 0.6899 ± 0.004.
With QFIFSRGGLPVL the protein stability index was 0.7351 ± 0.0015.
With QFIPIRSIIMRG the protein stability index was 0.73 ± 0.038.
Work on QFLWCFRPCCCS yielded a protein stability index of 0.584 ± 0.081.
QFVLLFRSSGLR showed a protein stability index of 0.7104 ± 0.0017.
With QGERHCCILVST the protein stability index was 0.555 ± 0.025.
In the case of QGGLCGVYGWSL, the protein stability index is reported as 0.68 ± 0.042.
Sequence QGGSHARDRRRL has a protein stability index of 0.678 ± 0.013.
QHFSSPQPVPYS was tested, and the protein stability index was 0.696 ± 0.013.
With QIKARVRRDLTL the protein stability index was 0.692 ± 0.096.
In the case of QKKIKNKRQHRT, the protein stability index is reported as 0.795 ± 0.11.
